Reference: US9624471B2, “Methods for maturing cardiomyocytes and uses thereof” (UNIVERSITY OF WASHINGTON THROUGH ITS CENTER FOR …, priority 2013, dated 2017)

B1: let-7g: human let-7 family miRNA, SEQ ID NO: 9, overexpressed from pLKO lentiviral pri-miR-let-7g construct (nucleic acid, listed as Homo sapiens)
chain: AGGCUGAGGUAGUAGUUUGUACAGUUUGAGGGUCUAUGAUACCACCCGGUACAGGAGAUAACUGUACAGGCCACUGCCUUGCCA
B2: let-7i: human let-7 family miRNA, SEQ ID NO: 10, overexpressed from pLKO lentiviral pri-miR-let-7i construct (nucleic acid, listed as Homo sapiens)
chain: CUGGCUGAGGUAGUAGUUUGUGCUGUUGGUCGGGUUGUGACAUUGCCCGCUGUGGAGAUAACUGCGCAAGCUACUGCCUUGCUA

Assays:
hESCs-CMs = test: Contractile force and beat frequency measurement on arrays of microposts; assay type: cell-based, human; settings: let-7 OE CMs; for beat frequency: EV control 1.57±0.1 hz; for average twitch force: EV control 7.77±0.7 nN/cell, P<0.001
Procedure: Arrays of silicone microposts were fabricated out of polydimethylsiloxane (PDMS) via a previously-described double-casting process using soft lithography from a SU8 master^19. Each micropost within the arrays used for these studies was 6.45 μm in height, 2.3 μm in diameter, and the center to center spacing between adjacent posts was 6 μm. Prior to cell seeding, the tips of these microposts were stamped with 50 μg/ml of mouse laminin (LIFE TECHNOLOGIES™), and the remaining surfaces of the array were fluorescently stained with BSA 594 and blocked with 0.2% Pluronic F-127 (in PBS)^20. CMs that were 1 week post pLKO-let-7 OE or EV lentiviral transfection, were seeded onto these arrays at a density of around 800,000 cells per substrate.
One week following cell seeding, muscle twitches from individual hESCs-CMs were recorded with high-speed video microscopy within a live cell chamber at 37° C. These images were acquired using a NIKON™ Ti-E upright microscope with a 60× water-immersion objective and a Hammamatsu ORCA™ camera. A custom MATLAB™ code was then used to compare each time frame of this video, to a reference fluorescent image, taken at the base plane of the posts. The twitch force at each post was subsequently calculated by multiplying the deflection of the post by the post's bending stiffness (38 nN/μm). The total twitch force produced by the cell was then determined by adding together the twitch force measured at each post beneath the cell. The average spontaneous beating frequency of the cells was determined by locating the time at which each beat reaches a maximum in the total twitch force (using the same MATLAB™ code), calculating the frequency between each sequential beat: 1/(time at which second beat occurs—time at which first beat occurs), and then averaging these frequencies across all of the measured twitch events.

IMR90 iPSC-CMs = test: let-7 over-expression in IMR90 iPSC derived cardiomyocytes, qPCR; assay type: cell-based; settings: for let-7 over expression relative to empty vector (EV) control: pLKO-lentiviral OE for up to 2 weeks; for cardiomyocyte maturation markers expression / let-7 targets (lin28 and HMGA2) expression: qPCR
Source text: FIGS. 19A-19B show let-7 over-expression (OE) in IMR90 iPSC derived cardiomyocytes (IMR90 iPSC-CMs). A pLKO-lentiviral based system was used to overexpress let-7g and let-7i in IMR90-iPSC-CMs for up to 2 weeks. […] Experiments were validated with 3 biological and 3 technical replicates. FIG. 19B qPCR validated the down-regulation of let-7 targets (lin28 and HMGA2) and upregulation of cardiomyocyte maturation markers in let-7i OE and let-7g OE CMs.
Total RNAs were extracted with miRNeasy™ mini kit (QIAGEN™) or using TRIZOL™ (INVITROGEN™). RNA was DNAse treated with DNA-free kit (AMBION™). miR-let-7g and mir-let-7i taqman assays (APPLIED BIOSYSTEMS) were used for miRNAqPCRs following the manufacturer's protocol using RNU66 snoRNA as a loading control. For mRNA qPCR, reverse transcription reaction was carried out using Omniscript™ RT kit (QIAGEN™). Primers for CTNT, MYH7, RYR2, SERCA2 and GJA1 were based on Tulloch et a1^2. Primers for HCN4, KCNJ2, SCN5A, HMGA1, HMGA2, IRS2, INSR, LIN28, SLC27A6 and FABP2, CD36, PPARA, TRIM71, EGR1, CDKN1A were purchased from Real Time Primers. qPCR was performed using SYBR green chemistry and ABI 7300 Real time PCR system. Samples were normalized using GAPDH as a house keeping gene.

let-7 OE CMs = test: Mitochondrial DNA copy number by qPCR (mtCol normalized to GAPDH); assay type: cell-based, human; settings: let-7 OE vs. EV control
Source text: FIGS. 5A-5G Let-7 over expression results in down-regulation of PI3/AKT/Insulin pathway and up-regulation of FA metabolism. Comparisons were done between let-7OE and EV control for all assays (FIG. 5A) Density plots using R generated with fold change expression (let-7g OE/EV) of genes for FA metabolism and PI3/AKT/Insulin signaling. (FIG. 5B) qPCR analysis of candidate let-7 targets of the insulin pathway and genes from the FA metabolism. (FIG. 5C) Representative OCR profile in response to ATP synthase inhibitor oligomycin, uncoupler of electron transport and oxidative phosphorylation, FCCP and electron transport chain blockers rotenone and antimycin during mito-stress assay. (FIG. 5D) Quantification of maximal respiration capacity, i.e., changes in response to FCCP treatment after inhibition of ATP synthase by oligomycin. n=24 from 3 biological replicates. (FIG. 5E) mitochondrial DNA copy number was determined by measuring the ratio of MtDNA to genomic DNA using primers specific for mitochondrial DNA gene, Col (mtCol) and normalizing to chromosomal gene GAPDH. (FIG. 5F) Representative OCR trace of let-7g OE cardiomyocytes for fatty acid stress measuring Etomixir (ETO) responsive OCR changes after palmitate addition. (FIG. 5G) Quantification of changes in OCR in response to ETO. n=32 from 3 biological replicates. […]

Molecule | beat frequency (hESCs-CMs) | average twitch force (hESCs-CMs) | let-7 over expression relative to empty vector (EV) control (IMR90 iPSC-CMs) | cardiomyocyte maturation markers expression (IMR90 iPSC-CMs) | let-7 targets (lin28 and HMGA2) expression (IMR90 iPSC-CMs) | mitochondrial genome copy number (let-7 OE CMs)
B1 | 0.92±0.094 hz | 9.28±0.7 nN/cell | ≤ 10 fold | upregulation | down-regulation | without affecting
B2 | 1.05±0.1 hz | 11.32±0.86 nN/cell | up to 8 fold | upregulation | down-regulation | without affecting
